# *1 amine or outer side, *2 acyl side, *3 side chain or, on linkers, in order; H or OH if unused. [ ]: non-standard residue; d: D form. TyrEtNAc = L-tyrosine O-ethyl acetamide, (S)-3-(4-(2-acetamidoethoxy)phenyl)-2-aminopropanoic acid, CC(=O)NCCOc1ccc(C[C@H](N[*:1])C(=O)[*:2])cc1; hSOMe = (S)-2-amino-4-methoxybutanoic acid, COCC[C@H](N[*:1])C(=O)[*:2]; Trp(4-Cl)(βS-Me) = C[C@@H](c1c[nH]c2cccc(Cl)c12)[C@H](N)C(=O)O; Pro(trans-4-NH2) = O=C([C@@H]1C[C@@H](N[*:3])CN1[*:1])[*:2]; Trp(βS-Me,4-F) = C[C@@H](c1c[nH]c2cccc(F)c12)[C@H](N)C(=O)O; Bip(4'-COOH) = N[C@@H](Cc1ccc(-c2ccc(C(=O)O)cc2)cc1)C(=O)O; SerOMe = O-methyl-L-serine, COC[C@H](N[*:1])C(=O)[*:2]; Phe(4-COOH) = N[C@@H](Cc1ccc(C(=O)O)cc1)C(=O)O; 1Nal = N[C@@H](Cc1cccc2ccccc12)C(=O)O; hTyr = N[C@@H](CCc1ccc(O)cc1)C(=O)O; hPhe = N[C@@H](CCc1ccccc1)C(=O)O; 4Pal = N[C@@H](Cc1ccncc1)C(=O)O; Dap(Me2) = CN(C)C[C@H](N)C(=O)O; dDab = NCC[C@@H](N)C(=O)O; dNMeA = CN[C@H](C)C(=O)O; Dab = NCC[C@H](N)C(=O)O; Nva = CCC[C@H](N)C(=O)O
# B1: SEQ ID NO: 151 (Example No. 151) (peptide)
# peptide: cyclo([TyrEtNAc]W[Phe(4-COOH)]G[Pro(trans-4-NH2)][Trp(4-Cl)(βS-Me)]D[dNMeA]G[Bip(4'-COOH)]WS[dA][hTyr])
# SMILES: CC(=O)NCCOc1ccc(C[C@@H]2NC(=O)[C@H](CCc3ccc(O)cc3)NC(=O)[C@@H](C)NC(=O)[C@H](CO)NC(=O)[C@H](Cc3c[nH]c4ccccc34)NC(=O)[C@H](Cc3ccc(-c4ccc(C(=O)O)cc4)cc3)NC(=O)CNC(=O)[C@@H](C)N(C)C(=O)[C@H](CC(=O)O)NC(=O)[C@H]([C@@H](C)c3c[nH]c4cccc(Cl)c34)NC(=O)[C@@H]3C[C@@H](N)CN3C(=O)CNC(=O)[C@H](Cc3ccc(C(=O)O)cc3)NC(=O)[C@H](Cc3c[nH]c4ccccc34)NC2=O)cc1
# B2: SEQ ID NO: 156 (Example No. 156) (peptide)
# peptide: cyclo([TyrEtNAc]W[Phe(4-COOH)]G[Pro(trans-4-NH2)][Trp(βS-Me,4-F)]D[dNMeA]G[Bip(4'-COOH)][4Pal]L[dA][hTyr])
# SMILES: CC(=O)NCCOc1ccc(C[C@@H]2NC(=O)[C@H](CCc3ccc(O)cc3)NC(=O)[C@@H](C)NC(=O)[C@H](CC(C)C)NC(=O)[C@H](Cc3ccncc3)NC(=O)[C@H](Cc3ccc(-c4ccc(C(=O)O)cc4)cc3)NC(=O)CNC(=O)[C@@H](C)N(C)C(=O)[C@H](CC(=O)O)NC(=O)[C@H]([C@@H](C)c3c[nH]c4cccc(F)c34)NC(=O)[C@@H]3C[C@@H](N)CN3C(=O)CNC(=O)[C@H](Cc3ccc(C(=O)O)cc3)NC(=O)[C@H](Cc3c[nH]c4ccccc34)NC2=O)cc1
# B3: SEQ ID NO: 154 (Example No. 154) (peptide)
# peptide: cyclo([TyrEtNAc]W[Phe(4-COOH)]G[Pro(trans-4-NH2)][Trp(βS-Me,4-F)]D[dNMeA]G[Bip(4'-COOH)][1Nal][Dab][dA][hTyr])
# SMILES: CC(=O)NCCOc1ccc(C[C@@H]2NC(=O)[C@H](CCc3ccc(O)cc3)NC(=O)[C@@H](C)NC(=O)[C@H](CCN)NC(=O)[C@H](Cc3cccc4ccccc34)NC(=O)[C@H](Cc3ccc(-c4ccc(C(=O)O)cc4)cc3)NC(=O)CNC(=O)[C@@H](C)N(C)C(=O)[C@H](CC(=O)O)NC(=O)[C@H]([C@@H](C)c3c[nH]c4cccc(F)c34)NC(=O)[C@@H]3C[C@@H](N)CN3C(=O)CNC(=O)[C@H](Cc3ccc(C(=O)O)cc3)NC(=O)[C@H](Cc3c[nH]c4ccccc34)NC2=O)cc1
# B4: SEQ ID NO: 147 (Example No. 147) (peptide)
# peptide: cyclo([TyrEtNAc]W[Phe(4-COOH)]G[Pro(trans-4-NH2)][Trp(4-Cl)(βS-Me)]D[dNMeA]G[Bip(4'-COOH)]W[hSOMe][dA][hTyr])
# SMILES: COCC[C@@H]1NC(=O)[C@H](Cc2c[nH]c3ccccc23)NC(=O)[C@H](Cc2ccc(-c3ccc(C(=O)O)cc3)cc2)NC(=O)CNC(=O)[C@@H](C)N(C)C(=O)[C@H](CC(=O)O)NC(=O)[C@H]([C@@H](C)c2c[nH]c3cccc(Cl)c23)NC(=O)[C@@H]2C[C@@H](N)CN2C(=O)CNC(=O)[C@H](Cc2ccc(C(=O)O)cc2)NC(=O)[C@H](Cc2c[nH]c3ccccc23)NC(=O)[C@H](Cc2ccc(OCCNC(C)=O)cc2)NC(=O)[C@H](CCc2ccc(O)cc2)NC(=O)[C@@H](C)NC1=O
# B5: SEQ ID NO: 153 (Example No. 153) (peptide)
# peptide: cyclo([TyrEtNAc]W[Phe(4-COOH)]G[Pro(trans-4-NH2)][Trp(4-Cl)(βS-Me)]D[dNMeA]G[Bip(4'-COOH)]W[SerOMe][dA][hTyr])
# SMILES: COC[C@@H]1NC(=O)[C@H](Cc2c[nH]c3ccccc23)NC(=O)[C@H](Cc2ccc(-c3ccc(C(=O)O)cc3)cc2)NC(=O)CNC(=O)[C@@H](C)N(C)C(=O)[C@H](CC(=O)O)NC(=O)[C@H]([C@@H](C)c2c[nH]c3cccc(Cl)c23)NC(=O)[C@@H]2C[C@@H](N)CN2C(=O)CNC(=O)[C@H](Cc2ccc(C(=O)O)cc2)NC(=O)[C@H](Cc2c[nH]c3ccccc23)NC(=O)[C@H](Cc2ccc(OCCNC(C)=O)cc2)NC(=O)[C@H](CCc2ccc(O)cc2)NC(=O)[C@@H](C)NC1=O
# B6: SEQ ID NO: 149 (Example No. 149) (peptide)
# peptide: cyclo([TyrEtNAc]W[Phe(4-COOH)]G[Pro(trans-4-NH2)][Trp(4-Cl)(βS-Me)]D[dNMeA]G[Bip(4'-COOH)]WL[dDab][hTyr])
# SMILES: CC(=O)NCCOc1ccc(C[C@@H]2NC(=O)[C@H](CCc3ccc(O)cc3)NC(=O)[C@@H](CCN)NC(=O)[C@H](CC(C)C)NC(=O)[C@H](Cc3c[nH]c4ccccc34)NC(=O)[C@H](Cc3ccc(-c4ccc(C(=O)O)cc4)cc3)NC(=O)CNC(=O)[C@@H](C)N(C)C(=O)[C@H](CC(=O)O)NC(=O)[C@H]([C@@H](C)c3c[nH]c4cccc(Cl)c34)NC(=O)[C@@H]3C[C@@H](N)CN3C(=O)CNC(=O)[C@H](Cc3ccc(C(=O)O)cc3)NC(=O)[C@H](Cc3c[nH]c4ccccc34)NC2=O)cc1
# B7: SEQ ID NO: 148 (Example No. 148) (peptide)
# peptide: cyclo([TyrEtNAc]W[Phe(4-COOH)]G[Pro(trans-4-NH2)][Trp(4-Cl)(βS-Me)]D[dNMeA]G[Bip(4'-COOH)]WL[dA][hTyr])
# SMILES: CC(=O)NCCOc1ccc(C[C@@H]2NC(=O)[C@H](CCc3ccc(O)cc3)NC(=O)[C@@H](C)NC(=O)[C@H](CC(C)C)NC(=O)[C@H](Cc3c[nH]c4ccccc34)NC(=O)[C@H](Cc3ccc(-c4ccc(C(=O)O)cc4)cc3)NC(=O)CNC(=O)[C@@H](C)N(C)C(=O)[C@H](CC(=O)O)NC(=O)[C@H]([C@@H](C)c3c[nH]c4cccc(Cl)c34)NC(=O)[C@@H]3C[C@@H](N)CN3C(=O)CNC(=O)[C@H](Cc3ccc(C(=O)O)cc3)NC(=O)[C@H](Cc3c[nH]c4ccccc34)NC2=O)cc1
# B8: SEQ ID NO: 150 (Example No. 150) (peptide)
# peptide: cyclo([TyrEtNAc]W[Phe(4-COOH)]G[Pro(trans-4-NH2)][Trp(4-Cl)(βS-Me)]D[dNMeA]G[Bip(4'-COOH)]WS[dA][hPhe])
# SMILES: CC(=O)NCCOc1ccc(C[C@@H]2NC(=O)[C@H](CCc3ccccc3)NC(=O)[C@@H](C)NC(=O)[C@H](CO)NC(=O)[C@H](Cc3c[nH]c4ccccc34)NC(=O)[C@H](Cc3ccc(-c4ccc(C(=O)O)cc4)cc3)NC(=O)CNC(=O)[C@@H](C)N(C)C(=O)[C@H](CC(=O)O)NC(=O)[C@H]([C@@H](C)c3c[nH]c4cccc(Cl)c34)NC(=O)[C@@H]3C[C@@H](N)CN3C(=O)CNC(=O)[C@H](Cc3ccc(C(=O)O)cc3)NC(=O)[C@H](Cc3c[nH]c4ccccc34)NC2=O)cc1
# B9: SEQ ID NO: 157 (Example No. 157) (peptide)
# peptide: cyclo([TyrEtNAc]W[Phe(4-COOH)]G[Pro(trans-4-NH2)][Trp(βS-Me,4-F)]D[dNMeA]G[Bip(4'-COOH)][4Pal][Nva][dA][hTyr])
# SMILES: CCC[C@@H]1NC(=O)[C@H](Cc2ccncc2)NC(=O)[C@H](Cc2ccc(-c3ccc(C(=O)O)cc3)cc2)NC(=O)CNC(=O)[C@@H](C)N(C)C(=O)[C@H](CC(=O)O)NC(=O)[C@H]([C@@H](C)c2c[nH]c3cccc(F)c23)NC(=O)[C@@H]2C[C@@H](N)CN2C(=O)CNC(=O)[C@H](Cc2ccc(C(=O)O)cc2)NC(=O)[C@H](Cc2c[nH]c3ccccc23)NC(=O)[C@H](Cc2ccc(OCCNC(C)=O)cc2)NC(=O)[C@H](CCc2ccc(O)cc2)NC(=O)[C@@H](C)NC1=O
# B10: SEQ ID NO: 155 (Example No. 155) (peptide)
# peptide: cyclo([TyrEtNAc]W[Phe(4-COOH)]G[Pro(trans-4-NH2)][Trp(βS-Me,4-F)]D[dNMeA]G[Bip(4'-COOH)][1Nal]S[dA][hTyr])
# SMILES: CC(=O)NCCOc1ccc(C[C@@H]2NC(=O)[C@H](CCc3ccc(O)cc3)NC(=O)[C@@H](C)NC(=O)[C@H](CO)NC(=O)[C@H](Cc3cccc4ccccc34)NC(=O)[C@H](Cc3ccc(-c4ccc(C(=O)O)cc4)cc3)NC(=O)CNC(=O)[C@@H](C)N(C)C(=O)[C@H](CC(=O)O)NC(=O)[C@H]([C@@H](C)c3c[nH]c4cccc(F)c34)NC(=O)[C@@H]3C[C@@H](N)CN3C(=O)CNC(=O)[C@H](Cc3ccc(C(=O)O)cc3)NC(=O)[C@H](Cc3c[nH]c4ccccc34)NC2=O)cc1
# B11: SEQ ID NO: 152 (Example No. 152) (peptide)
# peptide: cyclo([TyrEtNAc]W[Phe(4-COOH)]G[Pro(trans-4-NH2)][Trp(4-Cl)(βS-Me)]D[dNMeA]G[Bip(4'-COOH)]W[SerOMe][dA][hPhe])
# SMILES: COC[C@@H]1NC(=O)[C@H](Cc2c[nH]c3ccccc23)NC(=O)[C@H](Cc2ccc(-c3ccc(C(=O)O)cc3)cc2)NC(=O)CNC(=O)[C@@H](C)N(C)C(=O)[C@H](CC(=O)O)NC(=O)[C@H]([C@@H](C)c2c[nH]c3cccc(Cl)c23)NC(=O)[C@@H]2C[C@@H](N)CN2C(=O)CNC(=O)[C@H](Cc2ccc(C(=O)O)cc2)NC(=O)[C@H](Cc2c[nH]c3ccccc23)NC(=O)[C@H](Cc2ccc(OCCNC(C)=O)cc2)NC(=O)[C@H](CCc2ccccc2)NC(=O)[C@@H](C)NC1=O
# B12: SEQ ID NO: 146 (Example No. 146) (peptide)
# peptide: cyclo([TyrEtNAc]W[Phe(4-COOH)]G[Pro(trans-4-NH2)][Trp(4-Cl)(βS-Me)]D[dNMeA]G[Bip(4'-COOH)]W[Dap(Me2)][dA][hTyr])
# SMILES: CC(=O)NCCOc1ccc(C[C@@H]2NC(=O)[C@H](CCc3ccc(O)cc3)NC(=O)[C@@H](C)NC(=O)[C@H](CN(C)C)NC(=O)[C@H](Cc3c[nH]c4ccccc34)NC(=O)[C@H](Cc3ccc(-c4ccc(C(=O)O)cc4)cc3)NC(=O)CNC(=O)[C@@H](C)N(C)C(=O)[C@H](CC(=O)O)NC(=O)[C@H]([C@@H](C)c3c[nH]c4cccc(Cl)c34)NC(=O)[C@@H]3C[C@@H](N)CN3C(=O)CNC(=O)[C@H](Cc3ccc(C(=O)O)cc3)NC(=O)[C@H](Cc3c[nH]c4ccccc34)NC2=O)cc1
# Target: Recombinant human IL-1β (BioLegend 579404) (human, UniProt P01584 117-269)
# Experiment: cell-based or functional assay
row,MRC5 IC50,Binder
1,0.0759 nM,B1
2,0.948 nM,B2
3,0.196 nM,B3
4,0.0926 nM,B4
5,0.088 nM,B5
6,0.81 nM,B6
7,0.0483 nM,B7
8,0.0633 nM,B8
9,0.403 nM,B9
10,0.22 nM,B10
11,0.06 nM,B11
12,0.114 nM,B12

# — patent US20230406885A1, “CYCLIC PEPTIDES FOR TRAPPING INTERLEUKIN-1 BETA” (MERCK SHARP & DOHME LLC, priority 2022, published 2023)
